# Reference: US20240041978A1, “LA PROTEIN AS A NOVEL REGULATOR OF OSTEOCLASTOGENESIS” (The U.S.A., as Represented by the Secretary, Department of …, priority 2021, published 2024)
# Entries after “also recorded” stand apart in the source; their conditions may differ. Peptide text beside a SMILES is read from it. * marks the point of attachment. Cbz = O=C(OCc1ccccc1)*; CH2F = FC*
# T1: Anx A5 on PS containing liposomes (Homo sapiens, UniProt P08758)
# T1 sequence (P08758 1-320): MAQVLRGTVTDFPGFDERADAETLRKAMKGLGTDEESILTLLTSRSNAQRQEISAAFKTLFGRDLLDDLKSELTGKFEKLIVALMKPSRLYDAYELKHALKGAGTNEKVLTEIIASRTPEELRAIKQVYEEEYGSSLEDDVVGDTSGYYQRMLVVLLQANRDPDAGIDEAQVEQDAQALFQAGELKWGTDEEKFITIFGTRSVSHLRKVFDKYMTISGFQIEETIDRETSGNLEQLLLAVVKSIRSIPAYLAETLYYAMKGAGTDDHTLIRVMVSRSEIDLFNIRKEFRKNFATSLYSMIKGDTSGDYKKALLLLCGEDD
# Assays:
# [1] = tested on: human monocyte-derived osteoclasts; assay: Osteoclast fusion assay (number of fusion events, fluorescence microscopy); format: cell-based; conditions: for osteoclast multinucleation / fusion: screen of La 188-375 peptide library, control no addition; for formation of multinucleated syncytia (osteoclast fusion): recombinant protein ~40 nM added end of day 2 post-RANKL, overnight
# Protocol: Osteoclasts: Elutriated monocytes from healthy donors were obtained. Cells were plated at 2.9×10^5 per cm^2 in 35 mm dishes with polymer coverslip bottoms (Ibidi #81156) for imaging or 35 mm or 10 cm dishes for biochemical experiments in complete media [α-MEM supplemented with 10% Fetal Bovine Serum (FBS) and penicillin-streptomycin-L-glutamine (Gibco Invitrogene #12571063; #26140079 and #10378016, respectively)]. Monocytes were differentiated to M2 macrophages in the presence of 100 ng/ml M-CSF for 6 days and then differentiated with 100 ng/ml M-CSF and 100 ng/ml RANKL for 3 days unless indicated otherwise. RAW 264.7 cells (ATCC, Manassas, VA, #TIB-71) were maintained in DMEM supplemented with 10% FBS to a maximum of 8 passages. RAW 264.7 cells were differentiated to osteoclasts in the presence of 100 ng/ml murine RANKL for 5 days. To separate unfused mononucleated and fused, multinucleated RAW 264.7 cells into separate fractions, advantage was taken of the much stronger adherence of multinucleated cells to culture dish plastic. After washing in PBS, mixed RAW cultures (following RANKL differentiation) were left in Ca^2+ and Mg^2+ free PBS for 10 minutes at room temperature. Culture dishes were then tapped on the lab bench and a large portion of unfused, mononucleated RAW cells were released, and these released cells were collected via centrifugation. This process was repeated 2-4 times until dishes were left with a population of primarily fused, multinucleated syncytia. Mononucleated and multinucleated cell fractions were then processed for biochemical or imaging experiments as described below.
# Constructs & Recombinant proteins & Transfection: Recombinant La 1-408, 1-375, 1-375 Q20A_Y24A_D33I, 1-187 and 188-375 were amplified with primers designed with overlapping sequences and inserted between NdeI/HindIII in the V78 pET28A E. coli expression vector, adding to each a N-terminal 6×his affinity tag. La 1-408 was expressed as a recombinant protein in E. coli and purified using IMAC columns by SD Biosciences (San Diego, CA). The remaining constructs were transformed into BL2 (DE3) chemically competent E. coli (Thermo Fisher Scientific) and protein expression was induced with IPTG. Cells were lysed with Bugbuster (Sigma), and 6×his-La proteins were affinity purified using HisPur Cobalt Spin columns (Thermo Fisher Scientific), each according to the manufacturer's instructions. Endotoxin contaminates were depleted from affinity purified 6×his-La proteins using Pierce high-capacity endotoxin removal columns (Thermo Fisher Scientific), according to the manufacturer's instructions. Proteins were then sterile filtered, aliquoted and kept at −80 C.
# Plasmids were introduced into primary osteoclasts at day 2 of RANKL stimulation via jetPRIME (Polyplus Transfection). FLAG-La 1-408, FLAG-La 1-375 and FLAG-La 1-375 Q20A_Y24A_D33I plasmids were a gift of the Maraia Lab (NICHD). Briefly, SSB (UniProt P05455) was inserted between HindIII and BamHI the pFLAG-CMV2 vector (Sigma). “Uncleavable” La was produced by taking the FLAG-La 1-408 plasmid and making two point mutations at amino acids D371A and D374A, abrogating the caspase cleavage sites at the C-terminal region of the protein (Emory Integrated Genomics Core). siRNA were introduced into primary osteoclasts after 1 day of RANKL stimulation via Lipofectamine RNAiMAX (Thermo Fisher Scientific). Non-targeted (Cat #4390843) and SSB-targeted (Cat #4392420_ID:s13469) siRNA were introduced at a concentration of 5 ng/ml (Silencer Select, Ambion).
# Fusion Assays: Osteoclast fusion in the culture systems was evaluated by fluorescence microscopy (Verma et al., J Biol Chem 293, 254-270, doi:10.1074/jbc.M117.809681 (2018)). Briefly, cells were fixed with 4% paraformaldehyde at timepoints of interest, permeabilized with 0.1% TRITON™ X-100 and blocked with 5% FBS. Cells were then stained with phallodin-ALEXAFLURO®488 and Hoechst to label cells' actin cytoskeleton and nuclei, respectively. […]
# [2] = tested on: production of LMW La in human osteoclasts; assay: La cleavage and localization in differentiating osteoclasts with caspase inhibitor (Western blot, immunofluorescence); format: cell-based; conditions: for production of LMW (cleaved) La: Western blot, differentiating human osteoclasts, Day 3-4 post-RANKL
# Protocol: To identify the functional form of La associated with osteoclastogenesis, the relationship was determined between the appearance of LMW La and fusion between osteoclasts. During apoptotic progression human La is cleaved by caspases at […], removing La's NLS (Rutjes et al., Cell Death Differ 6, 976-986, doi:10.1038/sj.cdd.4400571 (1999); Ayukawa et al., J Biol Chem 275, 34465-34470, doi:10.1074/jbc.M003673200 (2000)).
# Biochemical approaches: Cells were lysed on ice via pulse sonication and rotated end over end at 4° C. for 45 minutes in the presence of protease inhibitors (cOmplete, Sigma, #118361700010). Steady-state protein levels were evaluated via SDS-PAGE followed by immunoblotting. Bulk proteins were evaluated via SDS-PAGE followed by silver stain (SilverQuest, Thermo Fisher Scientific). Bands of interest were cut from silver stained gels, destained and evaluated by liquid chromatography coupled with tandem mass spectrometry (Proteomics Core, NHLBI). The selective enrichment of cytosolic vs membrane associated protein fractions was carried out using MEM-PER™ Plus Membrane Protein Extraction Kit (Thermo Fisher Scientific, catalogue #89842) according to the manufacturer's instructions.
# Fluorescence Microscopy Imaging: In the immunofluorescence experiments the cells were washed with PBS and fixed with warm freshly prepared 4% formaldehyde in PBS (Sigma, F1268) at 37° C. The cells were washed three times with PBS. To permeabilize the cells, they were incubated for 5 min in 0.1% TRITON™ X100 in PBS. The cells were again washed three times with PBS and placed into PBS with 10% FBS, for 10 min at the room temperature to suppress non-specific binding. Then the cells were incubated with primary antibodies for 1 hour in PBS with 10% FBS. […]
# [3] = target: T1, Anx A5 on PS containing liposomes; assay: Liposome binding assay
# Excerpt: Anx A5 binds to PS containing membranes in a Ca^2+-dependent manner. Recombinant La was introduced alone or along with recombinant Anx A5 to PS containing liposomes and pelleted liposomes by centrifugation to evaluate whether La was enriched with liposomes or in supernatant (FIG. 12C).
# Liposome binding assay: Multilamellar liposomes were formed from pure PC or 9:1 (w/w) mixture of PC and PS. Both lipid compositions were supplemented with 0.5 mol % of lissamine rhodamine phosphatidylethanolamine. To prepare liposomes, lipid stock in benzene/methanol (95:5) was frozen in liquid nitrogen and freeze-dried overnight using SPEEDVAC™ (Savant). Dried lipid was resuspended in aqueous buffer (100 mM NaCl, 10 mM Hepes, pH 7.0) at 1 mM total lipid concentration and vortexed. Proteins and CaCl2 were added to the liposomes and the mixtures were incubated on ice for 30 minutes. To pellet, liposomes were centrifugated at 15,000 g for 20 minutes to pellet, based on rhodamine fluorescence ˜95% of liposomes. Centrifugated samples were then fractionated into a top, liposome-depleted fraction and a bottom fraction containing liposomes and liposome-bound proteins. Fractions were then solubilized via addition of Laemmli buffer (Bio Rad) and separated via SDS-PAGE, as described above. Recombinant La and recombinant Anx A5 were detected via their n-terminal 6×His tag via α-6×His antibody (Abcam) and signals for soluble vs liposome bound protein fractions were evaluated via densitometry. Data were presented as a percentage of protein signal bound to liposomes where: […]
Molecule,osteoclast multinucleation / fusion [1],formation of multinucleated syncytia (osteoclast fusion) [1],also measured
"COC(=O)C[C@H](NC(=O)[C@H](C)NC(=O)[C@@H](NC(=O)OCc1ccccc1)C(C)C)C(=O)CF [z-VAD, z-VAD-fmk] (Cbz-Val-Ala-Asp(OMe)-CH2F)",,,"ability of osteoclasts to form multinucleated syncytia ([1]; pan caspase inhibitor vs vehicle, Day 3 post-RANKL): significantly perturbed; production of LMW (cleaved) La [2]: blocked; production of LMW (cleaved) La ([2]; listed as z-VAD-fmk): block the production of cleaved La; localization of FL La ([2]; α-FL La immunofluorescence, Day 3): premature retention of FL La within the nuclei"
AKLRAKQEQEAKQKLEEDAEMKSLEEKIGC (inhibitory La peptide) [Peptide 2],inhibit fusion and the formation of multinucleated osteoclasts; also recorded: specifically inhibit,,
"Anx A5: recombinant annexin A5, PS-binding peripheral membrane protein [reference compound]",,,"pelleting with liposomes ([3]; PS containing liposomes, La with Anx A5, Ca^2+): pelleted with liposomes; pelleting with liposomes ([3]; liposomes lacking PS): neither La nor Anx A5 pelleted"
GEVEKEALKKIIEDQQESLNKWKSKGRRFK (inhibitory La peptide) [Peptide 9],inhibit fusion and the formation of multinucleated osteoclasts; also recorded: specifically inhibit,,
"La 1-408: recombinant full-length human La protein, N-terminal 6×his tag (protein, listed as Homo sapiens, N-terminal 6xHis tag, recombinant full-length human La protein, N-terminal 6×his tag) MAENGDNEKMAALEAKICHQIEYYFGDFNLPRDKFLKEQIKLDEGWVPLEIMIKFNRLNRLTTDFNVIVEALSKSKAELMEISEDKTKIRRSPSKPLPEVTDEYKNDVKNRSVYIKGFPTDATLDDIKEWLEDKGQVLNIQMRRTLHKAFKGSIFVVFDSIESAKKFVETPGQKYKETDLLILFKDDYFAKKNEERKQNKVEAKLRAKQEQEAKQKLEEDAEMKSLEEKIGCLLKFSGDLDDQTCREDLHILFSNHGEIKWIDFVRGAKEGIILFKEKAKEALGKAKDANNGNLQLRNKEVTWEVLEGEVEKEALKKIIEDQQESLNKWKSKGRRFKGKGKGNKAAQPGSGKGKVQFQGKKTKFASDDEHDEHDENGATGPVKRAREETDKEEPASKQQKTENGAGDQ",,significantly promoted,
"heat-inactivated La 1-408: recombinant heat-inactivated La 1-408 (protein, UniProt P05455 1-408, looked up, full-length heat-inactivated) MAENGDNEKMAALEAKICHQIEYYFGDFNLPRDKFLKEQIKLDEGWVPLEIMIKFNRLNRLTTDFNVIVEALSKSKAELMEISEDKTKIRRSPSKPLPEVTDEYKNDVKNRSVYIKGFPTDATLDDIKEWLEDKGQVLNIQMRRTLHKAFKGSIFVVFDSIESAKKFVETPGQKYKETDLLILFKDDYFAKKNEERKQNKVEAKLRAKQEQEAKQKLEEDAEMKSLEEKIGCLLKFSGDLDDQTCREDLHILFSNHGEIKWIDFVRGAKEGIILFKEKAKEALGKAKDANNGNLQLRNKEVTWEVLEGEVEKEALKKIIEDQQESLNKWKSKGRRFKGKGKGNKAAQPGSGKGKVQFQGKKTKFASDDEHDEHDENGATGPVKRAREETDKEEPASKQQKTENGAGDQ",,not observed,
"La 188-375: recombinant amino acids 188-375 of human La (protein, listed as Homo sapiens) YFAKKNEERKQNKVEAKLRAKQEQEAKQKLEEDAEMKSLEEKIGCLLKFSGDLDDQTCREDLHILFSNHGEIKWIDFVRGAKEGIILFKEKAKEALGKAKDANNGNLQLRNKEVTWEVLEGEVEKEALKKIIEDQQESLNKWKSKGRRFKGKGKGNKAAQPGSGKGKVQFQGKKTKFASDDEHDEHDE",promoted fusion,greatly promoted,
"La 1-187: recombinant N-terminal half of La 1-375 (protein, UniProt P05455 1-187, looked up, fragment) MAENGDNEKMAALEAKICHQIEYYFGDFNLPRDKFLKEQIKLDEGWVPLEIMIKFNRLNRLTTDFNVIVEALSKSKAELMEISEDKTKIRRSPSKPLPEVTDEYKNDVKNRSVYIKGFPTDATLDDIKEWLEDKGQVLNIQMRRTLHKAFKGSIFVVFDSIESAKKFVETPGQKYKETDLLILFKDD",,no effect,
